Where a chain is given by its changes, count along the chain named.

One may read the EC50 as the midpoint of the concentration-response curve.

To fix the notation:
T1: 人PD-L2，稳定表达于U2OS细胞系 (PD-L2-U2OS) (human, UniProt Q9BQ51 20-273)
T1 sequence (looked up): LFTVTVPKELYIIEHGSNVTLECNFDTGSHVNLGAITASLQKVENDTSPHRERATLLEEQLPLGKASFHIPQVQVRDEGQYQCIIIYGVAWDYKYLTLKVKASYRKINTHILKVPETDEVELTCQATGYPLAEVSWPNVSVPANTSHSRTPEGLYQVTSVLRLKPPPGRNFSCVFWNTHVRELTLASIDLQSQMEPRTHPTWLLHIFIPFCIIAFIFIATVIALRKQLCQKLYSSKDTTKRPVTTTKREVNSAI

T2: hPD-L2-His (ACRObiosystems，目录号:PD2-H5220) (human, UniProt Q9BQ51 20-219)
T2 construct: Bought protein (ACRObiosystems PD2-H5220); also called 人PD-L2抗原; 重组体hPD-L2-His蛋白; not shown: His tag
T2 sequence (looked up): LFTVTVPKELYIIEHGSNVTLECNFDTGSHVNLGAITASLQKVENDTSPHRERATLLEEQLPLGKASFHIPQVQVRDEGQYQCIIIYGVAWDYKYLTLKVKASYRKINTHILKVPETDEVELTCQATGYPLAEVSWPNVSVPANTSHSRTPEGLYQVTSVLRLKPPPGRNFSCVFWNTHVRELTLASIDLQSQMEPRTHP

B1: 嵌合25G4抗体 (antibody, human IgG1, kappa, V domains shown)
VH: QVQLQQPGVEVVRPGAPVKLSCKASGYTFTTNWMNWVKQRPGRGLEWIGRIDPSDSETHYNQQFKDKATLTVDKSSNTAYIQLSSLTSEDSAVYYCVREGIYGPWFAYWGQGTLVTVSA
VL: DIVMTQSPASLAVSLGQRATISCRASESVDNYGISLMHWYQQKPGQPPKLLIYRASDLESGIPARFSGSGSRTDFTLTINPVETDDVATYYCQQSDKDPPTFGAGTKLELKR
notes: also called Xi25G4
B2: 人源化25G4-1.1抗体 (antibody, human IgG1, kappa, V domains shown)
VH: QVQLVQSGAEVKKPGASVKVSCKASGYTFTTNWMNWVRQAPGQGLEWMGRIDPSDSETHYAQKFQGRVTMTVDKSTNTVYMELSSLRSEDTAVYYCVREGIYGPWFAYWGQGTLVTVSS
VL: DIQMTQSPSSLSASVGDRVTITCRASESVDNYGISLMHWYQQKPGKAPKLLIYRASDLESGVPSRFSGSGSRTDFTLTISSLQPEDFATYYCQQSDKDPPTFGQGTKVEIKR
notes: human IgG1 / human kappa; also called Hz25G4-1.1
B3: 人源化25G4-1.2抗体 (antibody, human IgG1, kappa, V domains shown)
VH: B2 VH with D55E
VL: B2 VL
notes: human IgG1 / human kappa; also called Hz25G4-1.2
B4: 人源化7A7-1.1抗体 (antibody, human IgG1, kappa, V domains shown)
VH: QVQLVQSGAEVKKPGASVKVSCKASGYSFSGYTMNWVRQAPGQGLEWMGLISPYNGVTTYAQKFQGRVTMTVDTSTNTVYMELSSLRSEDTAVYYCARGVTVPLRFDVWGQGTLVTVSS
VL: DIQMTQSPSSLSASVGDRVTITCKSSQSLLNSGNQKNYLTWYQQKPGKAPKLLIYWASTRESGVPSRFSGSGSGTDFTLTISSLQPEDFATYYCQNDDSYPLTFGQGTKVEIKR
notes: human IgG1 / human kappa; also called Hz7A7-1.1
B5: 人源化7A7-1.2抗体 (antibody, human IgG1, kappa, V domains shown)
VH: B4 VH with N55Q
VL: B4 VL
notes: human IgG1 / human kappa; also called Hz7A7-1.2
B6: 人源化7A7-2.1抗体 (antibody, human IgG1, kappa, V domains shown)
VH: B4 VH
VL: B4 VL with N31Q
notes: human IgG1 / human kappa; also called Hz7A7-2.1
B7: 嵌合14E7抗体 (antibody, human IgG1, kappa, V domains shown)
VH: QVQLQQSGPQLVRPGASVKISCKASGYSFTSYWMHWVKQRPGQGLDWIGMIDPSDSETRLNQKFKDKATLTVDKSSSTAYMQLSSPTSEDSAVYYCARWALQYFDYWGQGTTLTVSS
VL: DIVMTQSQKFMSTTVGDRVSITCKASQNVGAAVAWYQQKPGQSPKLLIYSASNRYPGVPDRFTGSGSGTDFTLTISNMHSEDLADYFCQQYRPYPFTFGGGTKLEIKR
notes: also called Xi14E7
B8: 人源化14E7-1.1抗体 (antibody, human IgG1, kappa, V domains shown)
VH: QVQLVQSGAEVKKPGASVKVSCKASGYSFTSYWMHWVRQAPGQGLEWMGMIDPSDSETRYAQKFQGRVTMTVDKSTSTVYMELSSLRSEDTAVYYCARWALQYFDYWGQGTLVTVSS
VL: DIQMTQSPSTLSASVGDRVTITCKASQNVGAAVAWYQQKPGKAPKLLIYSASNRYPGVPSRFSGSGSGTEFTLTISSLQPDDFATYYCQQYRPYPFTFGQGTKVEIKR
notes: human IgG1 / human kappa; also called Hz14E7-1.1
B9: 人源化14E7-1.2抗体 (antibody, human IgG1, kappa, V domains shown)
VH: B8 VH with D55E
VL: B8 VL
notes: human IgG1 / human kappa; also called Hz14E7-1.2
B10: 嵌合24A3抗体 (antibody, human IgG1, kappa, V domains shown)
VH: QVQLQQSGAEVVRSGTSVKVSCKASGYAFTNYLIEWVKQRPGQGLEWIGVINPVNGGISYNEKFKGKATLTADKSSSTVYMQLSSLTSDDSAVYFCIRSGGNYGGDYWGQGTTLTVSS
VL: DVVVTQTPKFLPVTAEDRVTITCKASQSVSNEVAWYQQKPGQSPKLLIYYASHRYTGVPDRFTGSGSGTDFTFTISSVQVEDLAVYFCQQHFSSPLTFGAGTKLELKR
notes: also called Xi24A3
B11: 人源化24A3-1.1抗体 (antibody, human IgG1, kappa, V domains shown)
VH: QVQLVQSGAEVKKPGASVKVSCKASGYAFTNYLIEWVRQAPGQGLEWMGVINPVNGGISYAQKFQGRVTMTADKSTSTVYMELSSLRSEDTAVYYCARSGGNYGGDYWGQGTLVTVSS
VL: DVVMTQSPDSLAVSLGERATISCKASQSVSNEVAWYQQKPGQPPKLLIYYASHRYTGVPDRFSGSGSGTDFTLTISSLQAEDVAVYYCQQHFSSPLTFGQGTKVEIKR
notes: human IgG1 / human kappa; also called Hz24A3-1.1
B12: 人源化24A3-1.2抗体 (antibody, human IgG1, kappa, V domains shown)
VH: B11 VH with N55Q
VL: B11 VL
notes: human IgG1 / human kappa; also called Hz24A3-1.2
B13: 嵌合7A7抗体 (antibody, human IgG1, kappa, V domains shown)
VH: EVQLQQSGPELVKPGASMKISCKASGYSFSGYTMNWVKQSLGKNLEWIGLISPYNGVTTYNQKFKGKASLTVDTSSNTAYMELLSLTSDDSAVYYCARGVTVPLRFDVWGAGTPVTVSS
VL: DIVMTQSPSSLTVTTGEKVTMSCKSSQSLLNSGNQKNYLTWYQQKTGQPPKLLIYWASTRESGVPDRFTGSGSGTDFTLTINNVQAEDLAVYYCQNDDSYPLTFGAGTKLELKR
notes: made in Expi-CHO; also called Xi7A7

In one test the target is T1, 人PD-L2，稳定表达于U2OS细胞系 (PD-L2-U2OS). Briefly: cell-based or functional assay.
Consider B1, for which the “IC50(ng/mL), 化学发光信号, 基于细胞的抗体阻断分析” value came out at 680 ng/mL.
On to B2, for which the “IC50(ng/mL), 化学发光信号, 基于细胞的抗体阻断分析” value came to 1000 ng/mL.
The molecule B3 displayed an IC50(ng/mL), 化学发光信号, 基于细胞的抗体阻断分析 of 700 ng/mL.
Turning to B4, the “IC50(ng/mL), 化学发光信号, 基于细胞的抗体阻断分析” value was 585 ng/mL.
As to B5, the “IC50(ng/mL), 化学发光信号, 基于细胞的抗体阻断分析” value is 374 ng/mL.
Take B6: the “IC50(ng/mL), 化学发光信号, 基于细胞的抗体阻断分析” value is 144 ng/mL.
In the case of B7, the “IC50(ng/mL), 化学发光信号, 基于细胞的抗体阻断分析” value stood at 342 ng/mL.
On to B8, for which the “IC50(ng/mL), 化学发光信号, 基于细胞的抗体阻断分析” value was 112 ng/mL.
B9 gave an IC50(ng/mL), 化学发光信号, 基于细胞的抗体阻断分析 of 2660 ng/mL.
The same measure, in the same setting: the same measure for B10: 221 ng/mL; for B11: 1950 ng/mL.
B12: the “IC50(ng/mL), 化学发光信号, 基于细胞的抗体阻断分析” value was 1420 ng/mL.

A further test addresses T2, hPD-L2-His …. Nature of the test: ELISA, coated hPD-L2-His. A general note: ELISA stands for enzyme-linked immunosorbent assay.
Molecule B2 gave an EC50 of 0.0689 µg/mL.
On the same count and under the same terms, the same measure for B3: 0.0874 µg/mL; for B4: 0.308 µg/mL.
Same read-out and setting: the same measure for B5: 0.68 µg/mL; for B6: 1.12 µg/mL.
On the same count and under the same terms, the same measure for B8: 0.115 µg/mL.
On to B9, for which the EC50 came to 0.0333 µg/mL.
As for B11, the EC50 worked out at 0.167 µg/mL.
B12 displayed an EC50 of 0.223 µg/mL.

In the next test the target is T1, 人PD-L2，稳定表达于U2OS细胞系 (PD-L2-U2OS). Briefly: flow cytometry on PD-L2-U2OS cells.
As to B13, the EC50 worked out at 0.43 µg/mL.
As for B1, the response was half-maximal at 0.54 µg/mL (EC50).
On to B2, for which it took 0.483 µg/mL to reach a half-maximal effect (EC50).
B4: a half-maximal effect (EC50) was put at 0.613 µg/mL.
Consider B5, for which the EC50 came out at 0.833 µg/mL.
As to B6, the EC50 worked out at 0.924 µg/mL.
Take B7: it took 1.12 µg/mL to reach a half-maximal effect (EC50).
For the molecule B8, the response was half-maximal at 0.443 µg/mL (EC50).
Same read-out and setting: the same measure for B10: 0.967 µg/mL; for B11: 1.05 µg/mL.
Still for that read-out and setting: the same measure for B12: 0.62 µg/mL.

These data come from patent CN114075288A (CHIA TAI TIANQING PHARMACEUTICAL GROUP CO LTD, dated 2022).
